We go through one molecule from patent US20090253622A1, “USE OF TLR3 AGONISTS FOR THE TREATMENT OF NEURODEGENERATIVE DISORDERS” (Nederlandse Organisatie voor toegepast - …, priority 2006, published 2009).

Entries after “also recorded” stand apart in the source; their conditions may differ.

This assay relates to human adult astrocytes. Description: cDNA array profiling of cytokine, chemokine and growth factor genes in human adult astrocytes. It counts as cell-based. The method, then:
Adult human astrocytes from post-mortem subcortical white matter samples were isolated and cultured as previously described (Bsibsi et al., J Neuropath Exp Neurol 61:1013-1021 [2002]). […] When indicated astrocytes were stimulated with 50 μg/mL poly I:C (Amersham Pharmacia Biotech, Piscataway, N.J.) or 200 ng/mL LPS (Sigma-Aldrich, Steinheim, Germany) to activate TLR3 and TLR4, respectively. […] It should be noted that contaminants in the commercial LPS preparation could possibly lead to some level of TLR2 activation in addition to TLR4 by the LPS preparation used but not of TLR3. When stimulated with cytokines, astrocytes were supplied with TNF-α, IFN-γ, IL-1β (each at 500 U/mL), IL-4 (at 250 U/mL), IL-6 (at 200 U/mL), IL-12 (at 50 ng/mL), IL-10 (at 20 ng/mL) and TGF-β (at 12.5 ng/mL) (PeproTech, Rocky Hill, N.Y.). […] Endothelial cells (UVEC) were isolated from umbillical cords and cultured on gelatin-coated dishes in M199 supplemented with 20 nM HEPES, 10% human serum, 10% heat-inactivated NBCS, 150 mg/mL ECGF, 5 U/mL heparin, 100 IU/mL penicillin and […] streptomycin.
Analysis of the mRNA profile of astrocytes was performed by hybrid selection of ^32P-labeled cDNA on Clontech human cytokine/chemokine Atlas® arrays as previous described (Meeuwsen et al., Glia 43:243-253 [2003]). Hybridization signals for each of the 268 cytokine, chemokine and growth factor (receptor) genes were calculated as the mean of duplicate measurements, corrected for background intensity and quantified using software provided by the manufacturer. Relative expression was calculated by dividing these hybridization signals by the mean signal for all nine housekeeping reference genes on the corresponding array.
Gene profiling was performed using astrocytes from four different control donors.
Astrocytes were isolated from post mortem human brain tissue samples and cultured under conditions as described elsewhere in this application. One part of the culture was stimulated with 50 μg/ml stathmin, the second with 50 μg/ml poly I:C and a third was left untreated to served as a reference control. Following another 48 h RNA was isolated from each culture and ^32P-labeled cDNA was prepared by reverse transcription. Subsequent hybrid selection of these ^32P-labeled cDNA samples was performed on Clontech Atlas® arrays containing selective probes for 268 cytokines, chemokines and growth factors, and various receptors for these mediators. All hybridization signals were calculated as the mean of duplicate measurements, corrected for background intensity and quantified using software provided by the manufacturer. Relative signal strength was next calculated by dividing these averaged hybridization signals by the mean signal for all nine housekeeping reference genes that were also present on each array as a reference.

B1: stathmin: cytosolic phosphoprotein of 149 amino acids (SEQ ID NO: 1); purified recombinant human stathmin from a commercial source (protein)
chain: MASSDIQVKELEKRASGQAFELILSPRSKESVPEFPLSPPKKKDFSLEEIQKKLEAAEERRKSHEAEVLKQLAEKREHEKEVLQKAIEENNNFSKMAEEKITHKMEANKENREAQMAAKLERLREKDKHIEEVRKNKESKDPADETEAD
modifications: Human; (44)..(138) Stathmin-like alpha helix domain
notes: purified recombinant human stathmin from a commercial source
As to B1, under “50 μg/ml, 48 h”, the “change in expression of genes encoding immune mediators and growth factors” value is “comprehensive and marked change in expression”. For the setting “astrocytes (TLR3 on the cell surface), qualitative summary”, the stathmin-induced mediators entry is listed as “CNTF, LIF; also recorded: TSG-6, IL-9, IL10, IL-11, IL-5; also recorded: VEGF, VEGF-C, CXCL8; also recorded: CCL2, CCL3, CXCL9”.
